These results are taken from patent US20140303084A1 (Biogen, published 2014).

Bridge positions count the residues as written; N and C are the ends. Square brackets hold non-standard residues; d marks the D form. Primed or numbered codes have the meaning given here. Side chains are listed from the residue outwards. Ends that are not written are not given here. * marks the point of attachment. :N‑O‑CH2‑CO‑PEG27 = oxime linkage (=N-O-CH2-CO-) to a PEG27 spacer; Biotin = O=C1N[C@H]2[C@H](CS[C@H]2CCCCC(=O)*)N1; PEG2(3) = PEG2 spacer carrying biotin on Lys; Palmitoyl = CCCCCCCCCCCCCCCC(=O)*; NMeL = CN[C@@H](CC(C)C)C(=O)O; PEG16″ = not defined here; PEG2″ = not defined here; PEG16′ = PEG-16 spacer

The assay has as its target human Factor IXa (human, UniProt P00740 47-191; P00740 227-461). Kind of assay: cell-based or functional assay.

As for GDSGRKLSCLGSYCWLSVQFMA, the “EC50 [µM], FXa generation assay” value is below 0.5 µM.

In the case of FPIQHKLTCLSSDCWLFPSHSY, the “EC50 [µM], FXa generation assay” value is above 50 µM.

B1: KK-k-MeLeu-TCLASYCWLF (peptide)
peptide: KK[dK][NMeL]TCLASYCWLF
modifications: not fully specified; printed as KK-k-MeLeu-TCLASYCWLF; cysteine pairing not given here
Turning to B1, the “EC50 [µM], FXa generation assay” value is above 10 µM.

Take HLGSPKLTCGASQCWLLNHEVS: the “EC50 [µM], FXa generation assay” value is above 50 µM.

As to [PEG16″]K([PEG2″-Biotin])[PEG16″][dR]RAPGKLTCLASYCWLFWTGIA (cysteine pairing not given here) [PEG16-Lys(PEG2-Biotin)-PEG16-rRAPGKLTCLASYCWLFWTGIA], the “EC50 [µM], FXa generation assay” value is above 1 µM.

B2: KLLKLLLKLLLKLLK-k-MeLeu-TCLASYCWLF (peptide)
peptide: KLLKLLLKLLLKLLK[dK][NMeL]TCLASYCWLF
modifications: not fully specified; printed as KLLKLLLKLLLKLLK-k-MeLeu-TCLASYCWLF; cysteine pairing not given here
Turning to B2, the “EC50 [µM], FXa generation assay” value is below 0.5 µM.

Take HQQRRKLTCLAGYCWLFVLGPS (not fully specified; cysteine pairing not given here): the “EC50 [µM], FXa generation assay” value was above 1 µM.

VARASKVECLASYCQLFVGGEV: the “EC50 [µM], FXa generation assay” value is above 1 µM.

Regarding QEQPAKLTCRGSYCWLFKRGDQ, the “EC50 [µM], FXa generation assay” value is above 50 µM.

On to RGRSAKLRCLASYCWLFFTVIL, for which the “EC50 [µM], FXa generation assay” value was below 0.5 µM.

As to RSTVSQMRCLASYCWLFPALVS, the “EC50 [µM], FXa generation assay” value is below 0.5 µM.

B3: KKK-k-MeLeu-TCLASYCWLF (peptide)
peptide: KKK[dK][NMeL]TCLASYCWLF
modifications: not fully specified; printed as KKK-k-MeLeu-TCLASYCWLF; cysteine pairing not given here
As to B3, the “EC50 [µM], FXa generation assay” value is above 20 µM.

As for RRAPGKLQCLASYCWLFATAIA, the “EC50 [µM], FXa generation assay” value is below 0.5 µM.

For RGSVHQPTCLGGYCGRLHSSWV, the “EC50 [µM], FXa generation assay” value was above 50 µM.

Turning to R[dK][NMeL]TCLASYCWLF (cysteine pairing not given here) [R-k-MeLeu-TCLASYCWLF], the “EC50 [µM], FXa generation assay” value is above 1 µM.

On to KRYVYRQMCLVSACWLLQLGYA, for which the “EC50 [µM], FXa generation assay” value was below 0.5 µM.

Consider HGLADRLTCLSSDCWLQPFGTS, for which the “EC50 [µM], FXa generation assay” value was above 50 µM.

As for GASGRRRTCVASYCLLFQSGLP, the “EC50 [µM], FXa generation assay” value is above 25 µM.

As for VSGTGRLTCVASYCWMFQLGSF, the “EC50 [µM], FXa generation assay” value is below 0.5 µM.

B4: K-k-MeLeu-TCLASYCWLF (peptide)
peptide: K[dK][NMeL]TCLASYCWLF
modifications: not fully specified; printed as K-k-MeLeu-TCLASYCWLF; cysteine pairing not given here
As for B4, the “EC50 [µM], FXa generation assay” value is above 1 µM.

For Ac-K[dK][NMeL]TCLASYCWLF (cysteine pairing not given here) [Ac-K-k-MeLeu-TCLASYCWLF], the “EC50 [µM], FXa generation assay” value was below 0.5 µM.

In the case of HDSLDQLTCLASVCQLASMGAR, the “EC50 [µM], FXa generation assay” value was above 1 µM.

Regarding KGAYQKLTCLASYCLLFLLTAQ, the “EC50 [µM], FXa generation assay” value is below 0.5 µM.

In the case of RQLWNKLTCLASYCALIGLSGT, the “EC50 [µM], FXa generation assay” value was above 1 µM.

For the molecule KKLTCLASYCWLF (not fully specified; D-Lys 1, D-Lys 2, MeLeu 3) [k-k-MeLeu-TCLASYCWLF], the “EC50 [µM], FXa generation assay” value was above 2.5 µM.

On to SKWEHQRGCLANNCWLFTLAPG, for which the “EC50 [µM], FXa generation assay” value is above 50 µM.

As to QAKMLKLTCLASYCWLFWVTRS, the “EC50 [µM], FXa generation assay” value was below 0.5 µM.

[dR]RAPGKLTCLASYCWLFWTGIA[PEG16″]K([PEG2″-Biotin])[PEG16″] (cysteine pairing not given here) [rRAPGKLTCLASYCWLFWTGIA-PEG16-Lys(PEG2-Biotin)-PEG16]: the “EC50 [µM], FXa generation assay” value was below 0.5 µM.

Turning to VSGTGKLTCLASYCWLFQLGSF, the “EC50 [µM], FXa generation assay” value was below 0.5 µM.

B5: (KLTCLASYCWLFG)2═N-O-(CH2)3-O-N═ (peptide)
peptide: KLTCLASYCWLFG
modifications: cysteine pairing not given here; also: dimer: two copies joined by ═N-O-(CH2)3-O-N═ (linker 1) at residue 13
Take B5: the “EC50 [µM], FXa generation assay” value was below 0.5 µM.

RAAPGKLQCLASYCWLFWTGIA: the “EC50 [µM], FXa generation assay” value was below 0.5 µM.

For the molecule RGRSAKLRCLASYCWLFFGVIL, the “EC50 [µM], FXa generation assay” value was below 0.5 µM.

In the case of [dR]RAPGKLTCLASYCWLFWTGIA[PEG16′]K([PEG2(3)-Biotin])[PEG16′]K(Palmitoyl) (cysteine pairing not given here) [rRAPGKLTCLASYCWLFWTGIA-PEG16-Lys(PEG2-Biotin)-PEG16-Lys(palmitoyl)], the “EC50 [µM], FXa generation assay” value was above 1 µM.

In the case of RRAAGKLQCLASYCWLFWTGIA, the “EC50 [µM], FXa generation assay” value is below 0.5 µM.

With RHSNHNLTCQASYCWLLPAGLQ, the “EC50 [µM], FXa generation assay” value is above 1 µM.

B6: H3N-KLTCLASYCWLFG═N-O-CH2-CO-PEG27-CNPRGD-(Y-OEt)-RC (peptide)
peptide: H-KLTCLASYCWLFG[:N‑O‑CH2‑CO‑PEG27]CNPRGDY(OEt)RC
modifications: numbers in words are those of the source; cysteine pairing not given here; also: oxime link =N-O-CH2-CO-PEG27 between G13 and C14, Y20 as Y-OEt
B6: the “EC50 [µM], FXa generation assay” value is above 50 µM.

Turning to [dK][NMeL]TCLASYCWLF (not fully specified (residue 8); cysteine pairing not given here) [k-MeLeu-TCLAS-(Y-OMe)-CWLF], the “EC50 [µM], FXa generation assay” value is below 0.5 µM.

B7: k-MeLeu-TCLASYCWLA (peptide)
peptide: [dK][NMeL]TCLASYCWLA
modifications: not fully specified (C-terminus); printed as k-MeLeu-TCLASYCWLA; cysteine pairing not given here
With B7, the “EC50 [µM], FXa generation assay” value is above 1 µM.

As to RRAPAKLQCLASYCWLFWTGIA, the “EC50 [µM], FXa generation assay” value was below 0.5 µM.

As for VSGTGRLTCVASYCWMFQLGIF, the “EC50 [µM], FXa generation assay” value is below 0.5 µM.

On to SRQSDKPTCLAISCSLLTSNVR, for which the “EC50 [µM], FXa generation assay” value was above 50 µM.

Turning to {Palmitoyl-(PEG)27}-KLTCLASYCWLF (cysteine pairing not given here) [Palmitoyl-(PEG)27-KLTCLASYCWLF], the “EC50 [µM], FXa generation assay” value was above 1 µM.

B8: Palmitoyl-(PEG)27(PEG)27-KLTCLASYCWLF (peptide)
peptide: {Palmitoyl-(PEG)27-(PEG)27}-KLTCLASYCWLF
modifications: disulfide 4-9 (inferred); not fully specified (C-terminus); printed as Palmitoyl-(PEG)27(PEG)27-KLTCLASYCWLF
For B8, the “EC50 [µM], FXa generation assay” value was above 20 µM.

In the case of RGRSAKLTCLASYCWLFFGVIL, the “EC50 [µM], FXa generation assay” value was below 0.5 µM.

For DAKVAKLRCLGSQCWLLQYAPG, the “EC50 [µM], FXa generation assay” value was below 0.5 µM.

Consider NGGMQKPACLASQCWLFANPLP, for which the “EC50 [µM], FXa generation assay” value was above 1 µM.

B9: k-MeLeu-TCLASYCQLF (peptide)
peptide: [dK][NMeL]TCLASYCQLF
modifications: not fully specified (C-terminus); printed as k-MeLeu-TCLASYCQLF; cysteine pairing not given here
For the molecule B9, the “EC50 [µM], FXa generation assay” value was above 1 µM.
